Where no end group is shown, it is not given here.
Legend:
[1] = target: T1, Anti-PSMA Fab (SEQ ID NOs: 19, 20); assay: phage binding ELISA; biotinylated PSMA Fab on neutravidin plate, bound phage detected with anti-M13-HRP
T1 construct: Biotinylated and captured on neutravidin coated plates in the phage ELISA; also called 006 PSMA Fab
Protocol: (§1) Clonal phage were harvested as crude supernatants and screened via standard ELISAs. […] Prior to the addition of clonal phage. wells were incubated with blocking buffer and PSMA antigen or blocking buffer alone. Without washing or aspirating, clonal phage supernatants were then added to the wells and incubated for a short time. Wells were then washed followed by detection of bound phage using a horse radish conjugated anti-M13 antibody.

[2] = target: T1, Anti-PSMA Fab (SEQ ID NOs: 19, 20); assay: phage binding ELISA; PSMA Fab on plate pre-incubated with PSMA antigen as competitor, anti-M13-HRP detection
Protocol: as §1

[3] = target: T2, Anti-PSMA Fab (SEQ ID NOs: 19, 20); assay: phage binding ELISA; biotinylated PSMA Fab on neutravidin plate, clonal phage, anti-M13-HRP detection
T2 construct: Biotinylated PSMA Fab captured on neutravidin coated plates in the phage ELISA; also called 006 PSMA Fab
Protocol: as §1

[4] = target: T2, Anti-PSMA Fab (SEQ ID NOs: 19, 20); assay: phage binding ELISA; Fab-coated wells pre-incubated with PSMA antigen as competitor, anti-M13-HRP detection;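 note: clonal phage supernatants screened, with reference wells given blocking buffer only (no PSMA antigen) before phage were added for a brief incubation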
Protocol: as §1

[5] = target: T3, Anti-PSMA Fab (SEQ ID NOs: 19, 20); assay: phage binding ELISA; Fab-coated wells pre-incubated with PSMA antigen as competitor, anti-M13 HRP detection
T3 construct: Biotinylated and captured on neutravidin coated plates in the phage ELISA; also called 006 PSMA Fab
Protocol: as §1

[6] = target: T3, Anti-PSMA Fab (SEQ ID NOs: 19, 20); assay: phage binding ELISA; biotinylated PSMA Fab on neutravidin plates, clonal phage supernatant, anti-M13 HRP detection
Protocol: as §1

[7] = target: T4, Anti-PSMA Fab (SEQ ID NOs: 19, 20); assay: phage ELISA; biotinylated PSMA Fab on neutravidin plate, clonal phage supernatant, anti-M13 HRP detection;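 note: wells preincubated with PSMA antigen in blocking buffer or with blocking buffer only before clonal phage were added for a short incubation, then bound phage detected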
T4 construct: In the phage ELISA the Fab was biotinylated and captured on neutravidin coated plates; also called 006 PSMA Fab
Protocol: as §1

[8] = target: T4, Anti-PSMA Fab (SEQ ID NOs: 19, 20); assay: phage ELISA; biotinylated PSMA Fab on neutravidin plate pre-incubated with PSMA antigen (competitor), anti-M13 HRP detection
Protocol: as §1

Binder | Anti-PSMA Fab (SEQ ID NOs: 19, 20) signal [1] | Anti-PSMA Fab signal in the presence of PSMA [2] | Anti-PSMA Fab (SEQ ID NOs: 19, 20) signal [3] | Anti-PSMA Fab signal in the presence of PSMA [4] | also measured
ELQRCTPWWMCFDV [Phage-2027] | 1.81 | 0.0689 | – | – | –
ALMWCIPQWMCQDQ (Peptide-180 library clone, tested as clonal phage supernatant) [Phage-2023] | – | – | 1.82 | 0.102 | –
IVKWCTPEWMCVGF [Phage-2034] | 1.8 | 0.154 | – | – | –
QMKWCTPEWMCVGM [Phage-2041] | 1.79 | 0.0767 | – | – | –
VEKWCIPSWMCAEV (cysteine pairing not given here; also: fused to phage pIII, pIII sequence and linker not given here) [Phage-2031] | 1.81 | 0.086 | – | – | –
PERWCIPVWMCESG (Peptide-180 library clone, tested as clonal phage supernatant) [Phage-2014] | – | – | 1.83 | 0.0731 | –
EVKWCTPEWMCAFL (cysteine pairing not given here; also: fused to phage pIII, pIII sequence and linker not given here, tested as clonal phage supernatant) [Phage-2044] | – | – | – | – | Anti-PSMA Fab signal in the presence of PSMA [5]: 0.0578; Anti-PSMA Fab signal [6]: 1.79
GEKWCIPPWMCITN (Peptide-180 library clone, tested as clonal phage supernatant) [Phage-2012] | – | – | 1.84 | 0.0697 | –
MDHWCTPPWMCEGW (tested as clonal phage supernatant) [Phage-2042] | – | – | – | – | Anti-PSMA Fab signal in the presence of PSMA [5]: 0.0642; Anti-PSMA Fab signal [6]: 1.79
LEKWCTPLWMCVGI (Peptide-180 library clone, tested as clonal phage supernatant) [Phage-2026] | – | – | 1.82 | 0.078 | –
LQKLCIPEWMCLNM (cysteine pairing not given here; also: fused to phage pIII, pIII sequence and linker not given here, Peptide-180 library clone) [Phage-2010] | – | – | – | – | Phage binding ELISA, Anti-PSMA Fab signal [7]: 1.84; Phage binding ELISA, Anti-PSMA Fab signal in the presence of PSMA [8]: 0.0655
VPKWCTPSWMCEST (tested as clonal phage supernatant) [Phage-2043] | – | – | – | – | Anti-PSMA Fab signal in the presence of PSMA [5]: 0.0787; Anti-PSMA Fab signal [6]: 1.79
WPMLCIPEWMCDGL [Phage-2033] | 1.8 | 0.0977 | – | – | –
DLPWCIPAWMCMGL [Phage-2039] | 1.8 | 0.0665 | – | – | –
MVKWCFPEWMCWTD (Peptide-180 library clone, tested as clonal phage supernatant) [Phage-2017] | – | – | 1.83 | 0.136 | –
EVHRCIPAWMCTTP (tested as clonal phage supernatant) [Phage-2046] | – | – | – | – | Anti-PSMA Fab signal in the presence of PSMA [5]: 0.0934; Anti-PSMA Fab signal [6]: 1.79
TEIWCIPPWMCDGQ (Peptide-180 library clone, tested as clonal phage supernatant) [Phage-2021] | – | – | 1.82 | 0.0686 | –
IDKWCIPMWMCEMS (tested as clonal phage supernatant) [Phage-2045] | – | – | – | – | Anti-PSMA Fab signal in the presence of PSMA [5]: 0.0708; Anti-PSMA Fab signal [6]: 1.79
SLNWCIPEWMCEGF [Phage-2035] | 1.8 | 0.0793 | – | – | –

Binder | Anti-PSMA Fab (SEQ ID NOs: 19, 20) signal [1] | Anti-PSMA Fab signal in the presence of PSMA [2] | Anti-PSMA Fab (SEQ ID NOs: 19, 20) signal [3] | Anti-PSMA Fab signal in the presence of PSMA [4] | also measured
LDKWCTPSWMCYGM (Peptide-180 library clone, tested as clonal phage supernatant) [Phage-2018] | – | – | 1.83 | 0.106 | –
MERWCKPAWMCADM (cysteine pairing not given here; also: fused to phage pIII, pIII sequence and linker not given here) [Phage-2038] | 1.8 | 0.0809 | – | – | –
EAKWCIPAWMCEDA [Phage-2036] | 1.8 | 0.0685 | – | – | –
ELKRCTPSWMCEGI (Peptide-180 library clone, tested as clonal phage supernatant) [Phage-2025] | – | – | 1.82 | 0.059 | –
DIKWCIPPWMCQVE [Phage-2032] | 1.81 | 0.0691 | – | – | –
IIKWCIPEWMCYMH [Phage-2028] | 1.81 | 0.104 | – | – | –
IVKWCTPPWMCTIY (Peptide-180 library clone, tested as clonal phage supernatant) [Phage-2019] | – | – | 1.83 | 0.153 | –
QLNWCIPEWMCQGL (Peptide-180 library clone, tested as clonal phage supernatant) [Phage-2022] | – | – | 1.82 | 0.124 | –
FEKWCIPSWMCENA [Phage-2030] | 1.81 | 0.0725 | – | – | –
LEKWCIPAWMCEVF (Peptide-180 library clone, tested as clonal phage supernatant) [Phage-2013] | – | – | 1.84 | 0.0967 | –
VIKLCSPPWMCIGL (Peptide-180 library clone, tested as clonal phage supernatant) [Phage-2020] | – | – | 1.82 | 0.0946 | –
ASPMCIPEWMCSGV [Phage-2037] | 1.8 | 0.0687 | – | – | –
VVQLCSPVWMCEGF (Peptide-180 library clone, tested as clonal phage supernatant) [Phage-2015] | – | – | 1.83 | 0.086 | –
DTHMCRPLWMCTGL (cysteine pairing not given here; also: fused to phage pIII, pIII sequence and linker not given here, Peptide-180 library clone) [Phage-2011] | – | – | – | – | Phage binding ELISA, Anti-PSMA Fab signal [7]: 1.84; Phage binding ELISA, Anti-PSMA Fab signal in the presence of PSMA [8]: 0.0778
EGKWCIPPWMCERN [Phage-2029] | 1.81 | 0.0762 | – | – | –
VQKWCIPAWMCDYV (Peptide-180 library clone, tested as clonal phage supernatant) [Phage-2024] | – | – | 1.82 | 0.0734 | –
VHKWCIPSWMCEAP [Phage-2040] | 1.79 | 0.0914 | – | – | –
PIRLCIPEWMCEMV (Peptide-180 library clone, tested as clonal phage supernatant) [Phage-2016] | – | – | 1.83 | 0.0575 | –

— patent publication US20260242478A1 (published 2026)
